For test [1], the target named is T1, HLA-A2/P68 peptide on T2 cells.
T1 construct: also called p68-DDX5
Description: FACS, T2 + P68 peptide. (In flow cytometry, cells or beads pass a laser one at a time.)

Test [2] addresses HLA-A2/MART1(26) control peptide on T2 cells (human). Description: FACS, T2 + MART1 peptide.
The target of test [3] is HLA-A2/MAGE-A4-A2 peptide on T2 cells (human). Put plainly: FACS (MFI) vs native peptide, Ala-mutant peptide on T2 cells.
Test [4] concerns the target HLA-A2/MAGE-A4-A4 peptide on T2 cells (human). The test is described as above.
Test [5] concerns the target HLA-A2/MAGE-A4-A5 peptide on T2 cells (human). The description is as above.
The target of test [6] is HLA-A2/MAGE-A4-A6 peptide on T2 cells (human). The test is described as above.
Test [7] addresses HLA-A2/MAGE-A4-A7 peptide on T2 cells (human). Described as above.

Three molecules from patent US20180179283A1 (ADICET BIO, published 2018) can be followed below.

B1: 905-2-D7 TCR-like antibody (antibody, mouse IgG1, kappa, V domains shown)
VH: QVQLKESGPGLVAPSQSLSITCTVSGFSLTSYGVHWVRQPPGKGLEWLGVIWAGGTTNYNSALMSRLSISRDNSKSQVFLEMNSLQTDDTAIYYCARDGHFHFDFWGQGTTLTVSS
VL: DIQMTQSPASLSVSVGETVTITCRASDIIYSNLAWYQQKQGKSPQLLVYAATNLAAGVPSRFSGSGSGTQYSLKINSLQSEDFGTYYCQHFWGSSISFGSGTKLEIKR
notes: also called Tyr D7
Consider B1, for which the binding result in test [1] and in test [2] was “no binding” in each case.

B2: C106B9 TCR-like antibody (antibody, mouse IgG1, kappa, V domains shown)
VH: QVQLQQSGGEVMKPGASVKLSCKATGYTFTGYWIEWIKQRPGHGLEWIGEILPGSGGTNYNEKFKGKATFTAHTSSNTAYMQLSSLTTEDSAIYYCARDSNSFTYWGQGTLVTVSS
VL: QIVLTQSPAIMSASPGEKVTITCSVSSSVDYIHWFQQKPGTSPKFWIYSTSILASGVPARFSGSGSGTSYSLTISRMEAEDAATYYCQQRSSYPPTFGSGTKLEIKR
notes: also called MAGE-A4 C106B9
B2: the “% decrease in binding” value in test [3] came to 33%; in test [4], 90%; in test [5], 90%; in test [6], 90%; in test [7] it was 90%.

B3: 906-11-D11 TCR-like antibody (antibody, mouse IgG1, kappa, V domains shown)
VH: not shown
VL: DIQMTQSPSSLSASLGGKVTITCKASQDIHNYIAWYQHKPVKGPRLLIHYTSTLQPGTPSRFSGSGSGRDYSFSISNLEPEDIATYYCLQYDNLWTFGGGTKLEIKR
notes: also called Tyr D11
B3: the binding result in test [1] and in test [2] was “no binding” each time.
